{"source": "patent US20230277625A1", "about": "(SIMCHA IL 18, published 2023)", "binders": {"B1": {"name": "SEQ ID NO: 37 (human DR-IL-18 variant hCS4) (ligand)", "chain": "RFGKLESKLSVIRNLNDQVLFIDQGNRPLFEDMTDSDCRDNAPRTIFIISTYRDSQPRGKAVTISVKCEKISTLSCENKIISFKEMNPPDNIKDTKSDIIFFQRNVPGHKYKMQFESSSYEGYFLACEKERDLFKLILKKEDELGDRSIMFTVQNED", "notes": "Engineered variant"}, "B2": {"name": "Mouse Interleukin-18 (mature form), wild type (ligand)", "chain": "NFGRLHCTTAVIRNINDQVLFVDKRQPVFEDMTDIDQSASEPQTRLIIYMYKDSEVRGLAVTLSVKDSKMSTLSCKNKIISFEEMDPPENIDDIQSDLIFFQKRVPGHNKMEFESSLYEGHFLACQKEDDAFKLILKKKDENGDKSVMFTLTNLHQS", "notes": "also called mIL-18 WT; WT mIL-18"}}, "key": {"[1]": {"molecular_target": "T1, Human IL-18BP (amino acids 31-194), biotinylated (human, UniProt O95998 31-194, biotin on the AviTag (BirA ligase) where used biotinylated)", "T1 construct": "Soluble decoy receptor; also called hIL-18BP; recombinant IL-18BP", "T1 sequence": "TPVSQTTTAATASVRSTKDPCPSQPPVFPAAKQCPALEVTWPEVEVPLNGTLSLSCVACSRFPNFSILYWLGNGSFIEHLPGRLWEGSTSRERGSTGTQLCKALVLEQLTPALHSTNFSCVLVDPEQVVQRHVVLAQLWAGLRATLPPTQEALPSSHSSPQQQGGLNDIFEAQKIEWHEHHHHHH", "assay": "on-yeast binding isotherms; 20 µM used for NBD; yeast-displayed variant; ratio computed with 20 µM put in for NBD"}, "[2]": {"molecular_target": "T1, Human IL-18BP (amino acids 31-194), …", "assay": "on-yeast binding isotherm (flow cytometry); members per FIG. 5A legend", "procedure": "(§1) Individual colonies of IL-18 yeast were grown overnight at 30° C. in SDCAA liquid media and induced in SGCAA liquid media for 1 day at 20° C. IL-18 display levels on yeast were verified by flow cytometry using an anti-cMyc tag antibody (anti-myc-PE; Cell Signaling Technologies). Receptor staining with biotinylated IL-18Rα (with or without IL-18R β) or biotinylated IL-18BP was performed in PBS supplemented with 0.5% BSA and 2 mM EDTA (PBE) on ice. All analysis was performed on a Sony SA3800 flow cytometer.\n(§2) To additionally characterize the receptor binding activities of the DR-IL-18 variants, the cytokines were expressed recombinantly and surface plasmon resonance for IL-18Rα and IL-18BP was performed (see FIG. 5B for representative traces)."}, "[3]": {"molecular_target": "T2, Human IL-18Rα ectodomain (amino acids 19-329), biotinylated (human, UniProt Q13478 19-329, biotin on the AviTag (BirA ligase))", "T2 construct": "range 19-329; Secreted from insect cells (gp67 signal peptide removed); also called hIL-18Rα; hIL18Rα", "T2 sequence": "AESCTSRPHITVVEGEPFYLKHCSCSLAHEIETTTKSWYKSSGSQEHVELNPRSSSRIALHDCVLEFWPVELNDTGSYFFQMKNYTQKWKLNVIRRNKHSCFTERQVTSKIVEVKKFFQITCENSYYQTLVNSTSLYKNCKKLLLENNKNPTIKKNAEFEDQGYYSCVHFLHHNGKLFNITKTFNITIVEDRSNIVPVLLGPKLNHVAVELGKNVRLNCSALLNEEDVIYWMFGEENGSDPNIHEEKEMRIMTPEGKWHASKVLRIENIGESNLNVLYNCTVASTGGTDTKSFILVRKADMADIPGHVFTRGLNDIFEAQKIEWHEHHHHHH", "assay": "SPR; average of 2 studies"}, "[4]": {"molecular_target": "T2, Human IL-18Rα ectodomain (amino acids …)", "assay": "SPR (Biacore T100), receptor captured via biotin, IL-18 as analyte", "procedure": "(§3) Experiments were conducted using a Biacore T100 and carried out at 25° C. Biotinylated IL-18Rα or IL-18BP were immobilized onto a Biacore biotin capture chip (Series S CAP sensor chip, GE Healthcare) to yield an Rmax of ˜50 RU (IL-18Rα) or ˜10 RU (IL-18BP). Measurements were made with serial dilutions of the IL-18 variants in HEPES buffered Saline-P+buffer (10 mM HEPES pH 7.4, 150 mM NaCl, 0.005% surfactant P20). The surface was regenerated by three 60-sec injections of regeneration buffer (3/4 (v/v) 8M guanidine hydrochloride with 1/4 (v/v) 1M sodium hydroxide). Experiments were performed in multiple channels simultaneously for increased observations. All data were analyzed with the Biacore T100 evaluation software version 2.0 with a 1:1 Langmuir binding model.\nas §2"}, "[5]": {"molecular_target": "T1, Human IL-18BP (amino acids 31-194), …", "assay": "SPR; KD ratio relative to WT IL-18; SPR; ratio normalized to WT", "procedure": "as §3, §2"}, "[6]": {"molecular_target": "T1, Human IL-18BP (amino acids 31-194), …", "assay": "SPR (Biacore T100), IL-18BP captured via biotin, IL-18 as analyte; SPR, recombinant soluble variant, biotinylated hIL-18BP on the chip", "procedure": "as §3, §2"}, "[7]": {"molecular_target": "T1, Human IL-18BP (amino acids 31-194), …", "assay": "SPR; average of 2 studies; SPR, average of 2 studies"}, "[8]": {"molecular_target": "T1, Human IL-18BP (amino acids 31-194), …", "assay": "SPR; KD for IL-18BP over KD for IL-18Rα; SPR; ratio of two measured KD", "procedure": "as §3, §2"}, "[9]": {"molecular_target": "T1, Human IL-18BP (amino acids 31-194), …", "assay": "SPR; KD(IL-18BP)/KD(IL-18Rα) normalized to WT IL-18"}, "[10]": {"molecular_target": "T1, Human IL-18BP (amino acids 31-194), …", "assay": "on-yeast binding isotherms; KD ratio relative to WT IL-18; yeast-displayed variant; ratio normalized to WT, from the 20 µM placeholder"}, "[11]": {"molecular_target": "T3, Mouse IL-18BP (amino acids 31-194), biotinylated (mouse, UniProt Q9Z0M9 29-193, biotin on the AviTag (BirA ligase))", "T3 construct": "also called mIL-18BP", "T3 sequence": "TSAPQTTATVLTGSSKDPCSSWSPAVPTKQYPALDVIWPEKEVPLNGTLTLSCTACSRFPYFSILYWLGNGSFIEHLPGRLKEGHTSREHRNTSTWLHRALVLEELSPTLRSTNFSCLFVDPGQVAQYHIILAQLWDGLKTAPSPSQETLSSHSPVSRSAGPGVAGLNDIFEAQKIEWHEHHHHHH", "assay": "SPR; KD ratio relative to WT IL-18", "procedure": "as §3"}, "[12]": {"molecular_target": "T3, Mouse IL-18BP (amino acids 31-194), …", "assay": "on-yeast binding isotherm (flow cytometry)", "summary_of_the_method": "(§4)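 Yeast displaying IL-18 variants were grown at 30 °C, then induced 1 day at 20 °C, with display checked by anti-myc-PE. Cells were stained on ice with biotinylated IL-18Rα (± IL-18Rβ) or biotinylated IL-18BP in PBS/0.5% BSA/2 mM EDTA. Binding was read by flow cytometry.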"}, "[13]": {"molecular_target": "T4, Mouse IL-18Rα ectodomain (amino acids 19-329), biotinylated (mouse, UniProt Q61098 19-329, biotin on the AviTag (BirA ligase))", "T4 construct": "range 19-329; Secreted from Expi293 cells (H7 signal peptide removed); also called mIL-18Rα; mIL18Ra", "T4 sequence": "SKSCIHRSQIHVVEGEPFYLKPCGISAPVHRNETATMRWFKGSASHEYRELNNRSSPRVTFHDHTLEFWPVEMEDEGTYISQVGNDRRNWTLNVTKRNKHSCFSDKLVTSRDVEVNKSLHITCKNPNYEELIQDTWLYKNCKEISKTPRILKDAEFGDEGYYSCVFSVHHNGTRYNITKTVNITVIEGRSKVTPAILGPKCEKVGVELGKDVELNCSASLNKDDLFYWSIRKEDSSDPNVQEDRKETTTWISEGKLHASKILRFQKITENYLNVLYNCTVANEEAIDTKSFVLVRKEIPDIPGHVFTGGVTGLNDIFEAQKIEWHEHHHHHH", "assay": "on-yeast binding isotherm (flow cytometry)", "summary_of_the_method": "as §4"}, "[14]": {"molecular_target": "T3, Mouse IL-18BP (amino acids 31-194), …", "assay": "SPR"}, "[15]": {"molecular_target": "T4, Mouse IL-18Rα ectodomain (amino acids …)", "assay": "SPR"}, "[16]": {"molecular_target": "T3, Mouse IL-18BP (amino acids 31-194), …", "assay": "SPR, immobilized biotinylated mIL-18BP, representative sensorgram FIG. 11B; representative sensorgram, FIG. 11B", "procedure": "By contrast, very little binding is observed with the same variants and mIL-18BP (right). FIG. 11B provides measurement of IL-18BP binding using representative surface plasmon resonance sensor grams between immobilized biotinylated mIL-18BP and the murine DR-IL-18 variants.\nas §3"}, "[17]": {"molecular_target": "T3, Mouse IL-18BP (amino acids 31-194), …", "assay": "on-yeast binding isotherm (flow cytometry): yeast-displayed murine IL-18 variant titrated with mIL-18BP, % max", "procedure": "as §1"}, "[18]": {"molecular_target": "T3, Mouse IL-18BP (amino acids 31-194), …", "assay": "on-yeast binding isotherms; KD for IL-18BP over KD for IL-18Rα", "procedure": "as §1"}, "[19]": {"molecular_target": "T4, Mouse IL-18Rα ectodomain (amino acids …)", "assay": "SPR (Biacore T100), receptor captured via biotin, IL-18 as analyte", "summary_of_the_method": "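Biotinylated IL-18Rα or IL-18BP captured on a biotin CAP chip (Rmax ~50 RU or ~10 RU respectively), with serial dilutions of IL-18 variants as analyte. Run at 25° C in HBS-P+ (10 mM HEPES pH 7.4, 150 mM NaCl, 0.005% P20); guanidine/NaOH regeneration. KD from 1:1 Langmuir fit.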"}, "[20]": {"molecular_target": "T3, Mouse IL-18BP (amino acids 31-194), …", "assay": "on-yeast binding isotherms; KD ratio relative to WT IL-18", "procedure": "as §1"}, "[21]": {"molecular_target": "T3, Mouse IL-18BP (amino acids 31-194), …", "assay": "SPR; KD(IL-18BP)/KD(IL-18Rα) normalized to WT IL-18"}, "[22]": {"molecular_target": "T3, Mouse IL-18BP (amino acids 31-194), …", "assay": "SPR (Biacore T100), IL-18BP captured via biotin, IL-18 as analyte", "procedure": "as §3"}, "[23]": {"molecular_target": "T3, Mouse IL-18BP (amino acids 31-194), …", "assay": "SPR; KD for IL-18BP over KD for IL-18Rα", "procedure": "as §3"}}, "data": [{"binder": "B1", "values": [{"measurement": "KD ratio IL-18BP/IL-18Rα", "setting": "[1]", "result": "> 125"}, {"measurement": "EC50", "setting": "[2]", "result": "> 1000", "unit": "nM"}, {"measurement": "Kd", "setting": "[3]", "result": 7.7, "unit": "nM"}, {"measurement": "Kd", "setting": "[4]", "result": 4.38, "unit": "nM"}, {"measurement": "Dissociation Constant Ratio normalized to WT IL-18", "setting": "[5]", "result": 64500}, {"measurement": "Kd", "setting": "[6]", "result": 183, "unit": "nM"}, {"measurement": "Kd", "setting": "[7]", "result": 121, "unit": "nM"}, {"measurement": "KD ratio IL-18BP/IL-18Rα", "setting": "[8]", "result": 41.8}, {"measurement": "IL-18 BP:Rα Dissociation Constant Ratio", "setting": "[9]", "result": 32200}, {"measurement": "Dissociation Constant Ratio normalized to WT IL-18", "setting": "[10]", "result": "> 424"}]}, {"binder": "B2", "values": [{"measurement": "Dissociation Constant Ratio normalized to WT IL-18", "setting": "[11]", "result": 1}, {"measurement": "Kd", "setting": "[12]", "result": 2.13, "unit": "nM"}, {"measurement": "Kd", "setting": "[13]", "result": 11.3, "unit": "nM"}, {"measurement": "Kd", "setting": "[14]", "result": 1.1, "unit": "pM"}, {"measurement": "Kd", "setting": "[15]", "result": 0.6, "unit": "nM"}, {"measurement": "Kd", "setting": "[16]", "result": 0.8, "unit": "pM"}, {"measurement": "EC50 (read off the curve)", "setting": "[17]", "result": "~20", "unit": "nM"}, {"measurement": "KD ratio IL-18BP/IL-18Rα", "setting": "[18]", "result": 0.188}, {"measurement": "Kd", "setting": "[19]", "result": 0.6, "unit": "nM"}, {"measurement": "Dissociation Constant Ratio normalized to WT IL-18", "setting": "[20]", "result": 1}, {"measurement": "IL-18 BP:Rα Dissociation Constant Ratio", "setting": "[21]", "result": 1}, {"measurement": "Kd", "setting": "[22]", "result": 1.1, "unit": "pM"}, {"measurement": "KD ratio IL-18BP/IL-18Rα", "setting": "[23]", "result": 0.00183}]}]}
